# B1: hybridoma positive clone 10B8 (antibody, V domains shown)
# VH: QIQLQQSGPDLVKPGASVKISCKASGYTFTDYYIHWMKQKPGQGLEWIGWIYPGSGNTKYNEKFKGKATLTVDTSSSTPYMQLSSLTSEDTAVYFCARRREDSFDYWGQVTTLTVSS
# VL: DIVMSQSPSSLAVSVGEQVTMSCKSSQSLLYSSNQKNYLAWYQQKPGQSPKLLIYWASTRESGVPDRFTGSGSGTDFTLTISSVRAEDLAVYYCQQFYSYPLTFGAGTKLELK
# notes: Mouse hybridoma supernatant in the assay; Variable regions are printed for subclone 10B8-B8; also called Clone 10B8-B8
# Biological target: T1, human CD47 on CCRF-CEM cells (CD47 positive cells) (human, UniProt Q08722 19-323)
# T1 construct: whole, on cells; also called hCD47-expressing tumor cells CCRF-CEM; CD47 receptor on the cell surface
# Test: CD47-SIRPα blocking experiment, FIG. 5 legend
binder,measurement,value
B1,binding result,binds
